In patent publication US9752168B2, “Compositions comprising a polypeptide having cellulolytic enhancing activity and a quinone compound and uses thereof” (priority 2010, dated 2017):

Columns and labels:
[1] = tested on: Trichoderma reesei cellulase composition; assay: Hydrolysis of AVICEL® (microcrystalline cellulose) by the T. reesei cellulase composition; details: no quinone compound, cellulase 4 mg protein/g cellulose, GH61 polypeptide where present 0.4 mg/g cellulose (10% w/w of cellulase)
[2] = tested on: T. reesei cellulase composition; assay: Enhancement of microcrystalline cellulose cellulolysis by the T. reesei cellulase composition using combinations of compounds and various GH61 polypeptides; details: mixtures of compounds at 3 mM

B1: A. fumigatus GH61B polypeptide: GH61 polypeptide having cellulolytic enhancing activity (SEQ ID NO: 30), recombinantly prepared according to WO 2010/138754 (protein, listed as Aspergillus fumigatus)
chain: MTLSKITSIAGLLASASLVAGHGFVSGIVADGKYYGGYLVNQYPYMSNPPDTIAWSTTATDLGFVDGTGYQSPDIICHRDAKNGKLTATVAAGSQIEFQWTTWPESHHGPLITYLAPCNGDCATVDKTTLKFVKIAAQGLIDGSNPPGVWADDEMIANNNTATVTIPASYAPGNYVLRHEIIALHSAGNLNGAQNYPQCFNIQITGGGSAQGSGTAGTSLYKNTDPGIKFDIYSDLSGGYPIPGPALFNA
For B1, the “Percent conversion of AVICEL®” value ([1]; 1 day) was 13.7±0.2%, the “Percent conversion of AVICEL®” value ([1]; 3 days) was 29±1% and the “Percent conversion of AVICEL®” value ([1]; 7 days) was 46±2%. The “overall conversion of AVICEL®, comparison among GH61 polypeptides” value [2] was “highest overall conversion”.
